Reference: the DeepSol protein solubility set

Experiment: soluble on expression in E. coli; label from the status in PepcDB or PDB records

Row | Sequence | soluble on expression in E. coli
1 | MGSDKIHHHHHHMTENQTAHVRALILDATPLITQSYTHYQNYAQSFYTTPTVFQEIKDAQARKNLEIWQSLGTLKLVHPSENSIAKVSTFAKLTGDYSVLSANDLHILALTYELEIKLNNGDWRLRKKPGDALDASKADVGTDGKQKLTEDNKKEEDSESVPKKKNKRRGGKKQKAKREAREAREAENANLELESKAEEHVEEAGSKEQICNDENIKESSDLNEVFEDADDDGDWITPENLTEAIIKDSGEDTTGSLGVEASEEDRHVALNRPENQVALATGDFAVQNVALQMNLNLMNFMSGLKIKRIRNYMLRCHACFKIFPLPKDGKPKHFCASCGGQGTLLRCAVSVDSRTGNVTPHLKSNFQWNNRGNRYSVASPLSKNSQKRYGKKGHVHSKPQENVILREDQKEYEKVIKQEEWTRRHNEKILNNWIGGGSADNYISPFAITGLKQHNVRIGKGRYVNSSKRRS | not soluble
2 | MGSDKIHHHHHHMRTDMTIEQNKNRRSAASGCAIHCHDCSMGTLCIPFTLNANELDQLDDIIERKKPIQKGEQIFKSGDPLKSLFAIRSGTIKSYTITEQGDEQITGFHLAGDVIGFDGIHAQSHQSFAQALETSMVCEIPFNILDELSGTMPKLRQQIMRLMSNEIMSDQEMILLLSKKNAEERLAAFISNLANRFGNRGFSAKEFRLTMTRGDIGNYLGLTVETISRLLGRFQKSGLIEVKGKYIIIVDHHELNLLAGNARIAR | not soluble
3 | MGSDKIHHHHHHMRATLAAAARDLNAAARFGADTACREGYHPVMLNTIIHGTPTDQPPLLIAHGLYGSGRNWGVIAKRLADERQVIAVDMRNHGLSPKTQSHSYVDLAEDLAEVIAAHGGRMDVVGHSMGGKAAMMLALRHPEAVNRLVVADIAPVSYQHTQAHFITAMRSVDLARVTRRSDAQEQLAAAGVDAMLQSFFTQSLDVENKSWRLNLDTLEREMPHILSFPEVETHWDGTALFLTGAHSDYVLPEHRPQIKRLFPAARFAKIPGAGHWLHAEKPREFEATVRGFLNA | not soluble
4 | MNTKQSNSHSTPSTFEGAQIRQGKASQCKTLMVQGTTSDAGKTTLVAGLCRVFADLQVKVAPFKPQNMALNSAVTPCGGEIGRAQALQAKAARLALDVDFNPILLKPNSDTGAQVIVHGKALMHRSSSNMEASEYQDYKKVAMQAVLSSHQRLTQQYDLVVVEGAGSPAEINLRKGDIANMGFAEAVDCPVLIIADIDKGGVFAQLVGTLMLLSQSEQDRVVGFVINRFRGDIKLLESGLTWLEERTNKPVLGVLPYLHGLDISSEDALVTQQALV | not soluble
5 | MSSLCPYTGRPTGLFRDFEDMMPYWAQRHSMLNNFNNIVPQQLNEVENTAQKFCVKLDVAAFKPEELKVNLEGHVLTIEGHHEVKTEHGFSKRSFTRQFTLPKDVDLAHIHTVINKEGQMTIDAPKTGSNTTVRALPIHTSAGHAVTQKPSSTTTTGKH | not soluble
6 | MNLPKKVRLVEVGPRDGLQNEKQPIEVADKIRLVDDLSAAGLDYIEVGSFVSPKWVPQMAGSAEVFAGIRQRPGVTYAALAPNLKGFEAALESGVKEVAVFAAASEAFSQRNINCSIKDSLERFVPVLEAARQHQVRVRGYISCVLGCPYDGDVDPRQVAWVARELQQMGCYEVSLGDTIGVGTAGATRRLIEAVASEVPRERLAGHFHDTYGQALANIYASLLEGIAVFDSSVAGLGGCPYAKGATGNVASEDVLYLLNGLEIHTGVDMHALVDAGQRICAVLGKSNGSRAAKALLAKA | soluble
7 | MSLGITGPTFDLTAQPGRANQPDGASVYSWGYGCNPRTVPGFLPSVNPLAGQNCPGMQLPGPTLIVHQGDVVTVTLTNNLPPAAGNTSILFPGFQVCAGTLDPNTGACSGTPTGVQGLLTREAQTGKTVTYTFIATTPGTHAYYSGTQGDLQVEMGLYGALIVLPTASGSVAVPAGCRAVSSLLPDGQPDYRNAAAAYNHSMACYDREYLFQFSEIDPAIHVQAEQQAGLPCAQPAGCMIVRTEPYHPAYFMVNGRSMPDDMDTNYAPQYPSQPYNGNPHMHPGELVLLRIIGTGRWQHPFHEHGNHVRVLARDGNLLLSQGDPSKVAGPLLFTTTTTPGLAMDGIFYWTGRGLNWDVYGHKPGDGSVCIPDANGYYTQDPTAPNYYEWCADHDKPLEAHPFGDVNSGGPVTLPDPNIFSNGAWYGGSPYLGPDATIRAVGATGTTPPTGTIANPPTTEAGFAFMWHSHNEREITTNNIFPGGMMMMMLVDPQAFVINEANEGHHHHHH | not soluble
8 | MAPWKIEEVKTLKGLIKSKPVVAIVDMMDVPAPQLQEIRDKIRDKVKLRMSRNTLIIRALKEAAEELNNPKLAELANYVERGAAILVTDMNPFKLYKLLEENKSPAPVRGGQIAPCDIKVEKGSTGMPPGPFLGELKSVGIPAAIEKGKIAIKEDKVVVKKGEVVSPKLAAVLDRLGIKPIKVGLNILAVYEDGIIYTPDVLKVDEEKLLADI | soluble
9 | MGSDKIHHHHHHMKRLIGCVLLFLGASLYGCGGQGEDPETIVSEKPIEEWDDEEEDGGEWTVPDIDLSNFRHDPTEWGENVTGVKTKLDTKEQVIALTLDACGGPHGSQFDEELLAYLQEKEIPATLFVNERWIDENEDVFLSLANNPLFQIENHGSAHKPLSVNGRNAWNIEGTKSPEEVVNEITNNQQRIYQLTGRSTRLFRSGTAFYDEVAVEIANALGVEVVNYSVLGDAGATFTAEQVKAALLNAEPGAIVLMHMNQPASGTAAGVKAAIPLLIEKGYTFARLDEYDLT | not soluble
10 | MSLERNYEESALFEHQFWLKVLTDHAQFLLDALAPKEKEDIKKATYFVETFTNLLNKVRNVNLMAFSKEAEQAAKEIRAFKLNIIQKQLEGKITIHFTPTFINHMVNEVEEYIAVLEFLKKGEVPPVFHELHYHLVWLTDAAGHAGSISGGLDLVEKRLKEKSEEFTKHFEQFYLKAVEMTGYLRTELHHFPALKKFTKDVSLELKLFSHFLHEVEELELSNEVLSVLSARMADHMAREECYYLLKLAQSSGLEMPKCNPLEGHHHHHH | soluble
11 | MSALTLKGTSYKMCTDKMSFVKNPTDTGHGTVVMQVKVPKGAPCKIPVIVADDLTAAINKGILVTVNPIASTNDDEVLIEVNPPFGDSYIIVGTGDSRLTYQWHKEGSSIGK | soluble
12 | MANLFRNLFGHKKSHSKGDEDHENMDRDTSRRSIRAAPSSSSRSMARGARFQDDSMLPPTAAYHTQNASARVRRGPKSCPGEYIEEEAPSSSRSFNVDSFRREPRDQRRRSSNMVQSTSKMTSSSSSRAAPRYQQWETSEYGSENTSPIGYHRHYQHRRHHPEEEEDEEEDEEEVYKKSMRYQDLKKKIRAHYEERLFNYERTQRNDHRQIKELEKEKDDLVKMLLQSNAKLDKEKKKTEYFKRKWQEAEHKIPFGNPIMPQFGFPPATPQFPQMFQFQPNSGGSAQRYSFMGAPMHPISSSNTPTTSGMDTTHGGAGESLVPASDVSYLAPLVPAPPTLPLLELNTSQGPSTSGISQQNPQQSSSSFFHDDDEDQDETKNFRDEEIESPRCHGSTSTLKNDEEAAELSDFLSKSNLTTLEEGKDSGFSTTPDDAKEPEKVAAN | not soluble
13 | MGSDKIHHHHHHMIAAIDIGTESARLMFKSNGEWKVLKKSYRIFFPSPEAAEQDPNEIFSAVFDLLKQVPNEDEVLYVGMSSVFHSIIGLDENLNPVTPLLNWADRRSFREKEELEKKYGVRFFYEKTACPLHPMYWPSKILWMKKNSNAKKFCSIKAYIVNKMTREFVEELSLASGTGMMNIHSLEWDGEILEITGVRKEDLPEIKSPYTQLRVKDEIAKELGFKKVYLVLGGGDGVMTNVGVNVMDPDSATVTIGTSGAFRVVMDRPVIDREGISTWCYLIDEENYVLGGAINNGGIVLMWLRDIMKFKDYNDIIEEAKESPAGANGLVFLPFLNGERAPHWRERYRGVLVGLTSSHRRSDIARAALEGICFRIKDIHNAVKRVGSVDPNRIVATGGFTSSPYWVQLLSDVLGKDIIVTNVENPSAFGAYVMALKSLGEDVEGFIEKEVRVERVFHPDSERNAVYERLYNDYKFLYEKLVDYYYKE | not soluble
14 | MVMHIKQSTVRSMLIVARRGKKRLNLDPDALAVLTALINLLAQESVARAAQSAANTGSRHVTKEHLKRVIAQLMLDFAI | not soluble
15 | MVRRIAVFSLYNEHGIADDYVIFLLEKLREFVERIVVVSNGNLSKLSEIAIKASCDQLLVRENVGFDVWGYKTGIDAVGFDALSEYDELILLNDTCYGPLFPFSEMFSEMERRDCDFWGSAAHSKMTPNPFTGTGHLPRHLTANFIAVREKMLKSRAFKTYWENLPAIKTYIDAIMLHESQFTKHFTDLGYSAEAYVDPDKYGSHYPAFINVDETIINRFPLLKRRPFFHDPTFLNAQGIDLPRALRVLEETSDYDLNLIWRNVLRTSELRNLNTNAALMSVLPDERAKDDDAPSDYGKIAVCAHIYYTDMLEEILALTGNIPVPYDFIATTDTPDKKAEIEATLAKRPGVKNVIVRVVEKNRGRDMSSLFISLRDLLVDDRYDLVCRLHTKKSPQVQASRSNLFKRHMLENLLNTRGYVHNVLDMFHDNPSVGLAVPPVVHISYPTMGHAWFFNRPKVEETARLLNIKVKFDHDTPVAAYGTMFWFRPRALRKMFEHKWKWEDFNAEPNHVDGGLAHVLERLIAYAAQDAGYLEHHHHHH | soluble
16 | MKDVVDKCSTKGCAIDIGTVIDNDNCTSKFSRFFATREEAESFMTKLKELAAAASSADEGASVAYKIKDLEGQVELDAAFTFSCQAEMIIFELSLRSLALEHHHHHH | not soluble
17 | MTYFVVEVTDQEIRREKDKARELRRSRWWQTVISRRTCHWCGGDFPPEELTMDHVVPIVRGGKSSRGNVVPACKECNNRKKYLLPLEWEEYLEKARNGGEQLEHHHHHH | soluble
18 | MSLPPSQSDRDPFSVTMCHSTLASLPLVYACSGCSSVAQLANTFAVRLDRSGAAEMSCISGVGGGVPALTRVARSGRPILALDGCALSCVKACLASVDVVPDRHLVLNRLGATKRQHGVCTEAEEAETWDAVQQALAEVRGAMEGHHHHHH | soluble
19 | MHFYKYGVLINQLSDSFEWRVAFLDGSVSDHCCITVPSEKFNFPPTPGATVKAKFEHANSFLPSLVAQCGSFEWFRDVTVVNSKVVIFAIVHFSNECLERDPFKINGMDYSIIENENTDFQKIVLPTRVLQTSITSRSNLQNTDTPFIYRIGVCWEPISFENGVTVNWRYYADFPITPIFELYYRETTLPYIAESMVYGVLEGVVIAENDHGALFWTPKMGCAILPSTSLDTPMPSLGSVHVILVKRCIPENSFGFSCSYELLSSFRSTEWPNLKVITDQITRKVYIEANASCRSMMENQDFPSMNVPHIGKVFRGLQQYRDKLSAGHLYDFRMEFQKEEGSFVPTIVDLCLEEDEMVDCRVVYISNETSTYFAVLDPSSNSFDRFKQSIDYIAIPFRVLFCANGVHVKNEELLLNSYKVRVRVPRNRHDVVNAIHVEHVIQSPKDPAYFITNGSVWLRTTVKFQNASRYELLCPLLEQKIIDVNGVTAAMSLTQEFTVHAQFVLMERNVPVFVVRQLASTVREHPRTTNYPSRSLNLSYEVSGALARTNPNGQLSAADNNIVLINDSISLDHNLPDTGEYPTILNESSFERQLLFDNQSIADSASTSGDFILTESVYESSSAASTCTVIDRNDARFSALNDDSNILISESWLDSTNQHSETTMDTPEIITESFYESTHDQASSRASTVDRLASDVDKISIGRPDYSPPPRRRIFGYSTPGDRVRPRNSYGSSSSGSLNGRPKRRAPYGFRQIRNITPHNVLLRDIIYNNINNRKMFVEQNKNAILKCWNRLPLAQVTRTTKLSVTVIAVESIKFPPSFDETCIKGLVRFVALGVGVDINLRNMSIVVPIGGKFNNLPKSFQLGETYRVYHFSSKVDRICRLGGFSFGLKGGMRNEEPPDRNNWFSDPQTVNGRDGQSYLRCTVNAERPANAEIESDFFELWSTTALPGFIIVEKVPQLMKHLNEELLDPDVHSRFTYSCVIEPLAGGPVEASILKDLKYDEEFCIFWRLVVEFSDTVPLPRLIIKSKIYVPPPPVVPVYVTPFTVNDFGCWETHRINSILHQARIDRLRAAGHMRVKMLDGPDMKPEIEIRKVDVNTRREKMFTAFDALLEKLPQLHSEGILEYVLEDDLREKIEYLLPMTDDNHKFQFRARNDSLTIGLNYLTDMLTKGKVYKMLYEKQEYVPLLKVLSDCIGLNTTYIKKTDAVTMMLQFMYRNELHTYM | not soluble
